Experimental data reported in patent US20150258192A1, “COMPOSITIONS AND METHODS FOR PREVENTING OR TREATING CHRONIC LUNG ALLOGRAFT DYSFUNCTION (CLAD) AND IDIOPATHIC PULMONARY FIBROSIS (IPF)” (priority 2014, published 2015).
No end group written: not given here.

Assays:
Assay in all cases: Kinase Profiling Assay
Assay type in all cases: biochemical
Details in all cases: peptide 100 μM
DCAMKL2(h) = molecular target: T1, DCAMKL2(h) (Homo sapiens, UniProt Q8N568)
T1 sequence (Q8N568 1-766): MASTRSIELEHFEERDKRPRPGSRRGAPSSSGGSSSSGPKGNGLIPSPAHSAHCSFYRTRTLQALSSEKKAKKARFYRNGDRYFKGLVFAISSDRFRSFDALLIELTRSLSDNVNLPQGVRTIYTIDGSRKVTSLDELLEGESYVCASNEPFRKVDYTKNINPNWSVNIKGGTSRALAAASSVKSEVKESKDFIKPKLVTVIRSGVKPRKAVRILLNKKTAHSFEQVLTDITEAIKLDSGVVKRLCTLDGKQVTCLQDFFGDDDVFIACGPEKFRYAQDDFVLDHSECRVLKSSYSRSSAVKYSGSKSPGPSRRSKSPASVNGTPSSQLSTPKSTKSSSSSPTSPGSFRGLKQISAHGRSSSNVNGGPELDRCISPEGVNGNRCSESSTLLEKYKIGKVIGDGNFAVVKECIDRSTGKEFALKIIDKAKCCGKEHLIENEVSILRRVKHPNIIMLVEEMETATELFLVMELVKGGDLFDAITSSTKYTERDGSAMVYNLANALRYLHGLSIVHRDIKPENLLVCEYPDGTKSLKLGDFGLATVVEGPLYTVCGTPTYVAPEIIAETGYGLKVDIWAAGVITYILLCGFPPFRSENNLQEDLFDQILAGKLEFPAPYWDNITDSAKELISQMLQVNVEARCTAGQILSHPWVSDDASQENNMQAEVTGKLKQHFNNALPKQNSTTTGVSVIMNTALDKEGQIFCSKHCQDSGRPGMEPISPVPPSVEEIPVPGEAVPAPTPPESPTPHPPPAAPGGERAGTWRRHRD
How it was run: (§1)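 Scintillation counting quantifies radiolabeled, positively charged substrate retained on a negatively charged filter after kinase reaction with labeled ATP; inhibitor peptide present.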

VRK2(h) = VRK2(h) (Homo sapiens, UniProt Q86Y07)
How it was run: as §1

cKit(D816H)(h) = cKit(D816H)(h) (Homo sapiens, UniProt P10721, D816H)
How it was run: as §1

MuSK(h) = molecular target: T2, MuSK(h) (Homo sapiens, UniProt O15146)
T2 construct: purchased Millipore
T2 sequence (O15146 24-869): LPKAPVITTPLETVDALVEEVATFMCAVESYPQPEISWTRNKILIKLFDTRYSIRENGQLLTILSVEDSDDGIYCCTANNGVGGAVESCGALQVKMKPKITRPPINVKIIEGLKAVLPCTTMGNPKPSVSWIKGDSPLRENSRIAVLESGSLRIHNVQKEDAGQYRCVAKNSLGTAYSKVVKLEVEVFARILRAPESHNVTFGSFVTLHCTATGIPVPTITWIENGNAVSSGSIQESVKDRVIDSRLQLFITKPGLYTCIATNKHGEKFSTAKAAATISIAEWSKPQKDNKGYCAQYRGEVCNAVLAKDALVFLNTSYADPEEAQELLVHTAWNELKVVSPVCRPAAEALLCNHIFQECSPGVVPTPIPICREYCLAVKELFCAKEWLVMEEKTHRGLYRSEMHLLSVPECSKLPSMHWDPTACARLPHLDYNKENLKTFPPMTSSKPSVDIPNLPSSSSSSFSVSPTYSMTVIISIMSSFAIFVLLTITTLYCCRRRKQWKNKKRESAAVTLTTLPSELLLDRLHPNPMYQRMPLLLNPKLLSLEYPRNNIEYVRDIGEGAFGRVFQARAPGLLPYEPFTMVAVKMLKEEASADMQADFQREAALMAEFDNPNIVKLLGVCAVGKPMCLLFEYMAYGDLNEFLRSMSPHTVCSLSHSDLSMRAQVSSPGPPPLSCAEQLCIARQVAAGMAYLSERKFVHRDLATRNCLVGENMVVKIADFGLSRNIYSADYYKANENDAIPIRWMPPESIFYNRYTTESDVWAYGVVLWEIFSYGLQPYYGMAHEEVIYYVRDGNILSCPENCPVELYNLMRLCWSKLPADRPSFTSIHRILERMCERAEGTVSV
How it was run: as §1

Pim-2(h) = Pim-2(h) (Homo sapiens, UniProt Q9P1W9)
How it was run: as §1

TSSK1(h) = molecular target: T3, TSSK1(h) (Homo sapiens, UniProt Q9BXA7)
T3 sequence (Q9BXA7 1-367): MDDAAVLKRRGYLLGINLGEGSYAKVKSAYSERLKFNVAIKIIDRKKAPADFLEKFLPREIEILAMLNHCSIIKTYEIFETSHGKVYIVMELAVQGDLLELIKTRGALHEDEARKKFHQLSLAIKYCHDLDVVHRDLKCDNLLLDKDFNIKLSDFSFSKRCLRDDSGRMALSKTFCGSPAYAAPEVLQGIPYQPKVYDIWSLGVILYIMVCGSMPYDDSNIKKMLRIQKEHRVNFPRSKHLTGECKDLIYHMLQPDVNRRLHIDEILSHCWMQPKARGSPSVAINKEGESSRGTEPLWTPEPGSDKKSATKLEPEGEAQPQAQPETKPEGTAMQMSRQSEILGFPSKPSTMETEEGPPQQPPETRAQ
How it was run: as §1

AMPKα1(h) = AMPKα1(h) (Homo sapiens, UniProt Q13131)
How it was run: as §1

Chain of Pim-2(h) (Q9P1W9 whole entry): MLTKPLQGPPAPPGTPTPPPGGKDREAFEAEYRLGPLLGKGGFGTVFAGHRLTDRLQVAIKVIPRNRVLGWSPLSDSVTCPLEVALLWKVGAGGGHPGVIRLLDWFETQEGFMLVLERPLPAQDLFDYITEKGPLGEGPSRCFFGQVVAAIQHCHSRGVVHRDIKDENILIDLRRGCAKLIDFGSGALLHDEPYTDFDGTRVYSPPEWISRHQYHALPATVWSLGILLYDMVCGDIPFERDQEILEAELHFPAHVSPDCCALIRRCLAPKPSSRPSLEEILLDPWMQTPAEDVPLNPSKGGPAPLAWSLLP
Chain of AMPKα1(h) (Q13131 whole entry): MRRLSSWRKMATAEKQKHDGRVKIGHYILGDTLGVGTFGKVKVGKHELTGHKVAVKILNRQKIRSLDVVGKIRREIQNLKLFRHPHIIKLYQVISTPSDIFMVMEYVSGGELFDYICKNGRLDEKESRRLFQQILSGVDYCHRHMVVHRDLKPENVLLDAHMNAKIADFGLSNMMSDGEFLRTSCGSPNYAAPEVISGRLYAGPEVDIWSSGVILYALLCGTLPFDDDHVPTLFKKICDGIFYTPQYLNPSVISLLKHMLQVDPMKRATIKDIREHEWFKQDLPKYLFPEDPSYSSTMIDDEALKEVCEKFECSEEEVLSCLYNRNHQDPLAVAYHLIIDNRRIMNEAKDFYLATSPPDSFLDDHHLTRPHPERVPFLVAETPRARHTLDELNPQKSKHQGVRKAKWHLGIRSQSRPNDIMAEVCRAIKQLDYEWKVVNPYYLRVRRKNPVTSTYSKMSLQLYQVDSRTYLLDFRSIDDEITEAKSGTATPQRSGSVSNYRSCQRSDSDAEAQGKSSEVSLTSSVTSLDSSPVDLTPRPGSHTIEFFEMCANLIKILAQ
Chain of AMPKα1(h) (Q9Y478 whole entry partner): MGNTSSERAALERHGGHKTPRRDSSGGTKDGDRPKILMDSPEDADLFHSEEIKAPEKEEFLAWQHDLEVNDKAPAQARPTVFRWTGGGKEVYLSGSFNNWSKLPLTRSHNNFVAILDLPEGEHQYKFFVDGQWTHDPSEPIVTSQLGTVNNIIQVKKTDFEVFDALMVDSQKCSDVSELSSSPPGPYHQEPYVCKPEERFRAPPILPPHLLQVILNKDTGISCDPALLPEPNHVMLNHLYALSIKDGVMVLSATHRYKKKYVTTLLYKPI
Chain of AMPKα1(h) (P54619 whole entry partner): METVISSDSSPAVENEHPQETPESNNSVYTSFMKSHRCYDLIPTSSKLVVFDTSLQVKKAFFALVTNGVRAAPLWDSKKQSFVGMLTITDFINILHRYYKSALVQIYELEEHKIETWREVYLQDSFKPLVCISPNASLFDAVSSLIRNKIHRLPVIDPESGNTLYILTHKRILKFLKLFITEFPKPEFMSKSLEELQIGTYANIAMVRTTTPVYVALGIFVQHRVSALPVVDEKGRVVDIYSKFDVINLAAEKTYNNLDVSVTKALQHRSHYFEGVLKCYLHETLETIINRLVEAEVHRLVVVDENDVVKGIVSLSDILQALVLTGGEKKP
Chain of VRK2(h) (Q86Y07 whole entry): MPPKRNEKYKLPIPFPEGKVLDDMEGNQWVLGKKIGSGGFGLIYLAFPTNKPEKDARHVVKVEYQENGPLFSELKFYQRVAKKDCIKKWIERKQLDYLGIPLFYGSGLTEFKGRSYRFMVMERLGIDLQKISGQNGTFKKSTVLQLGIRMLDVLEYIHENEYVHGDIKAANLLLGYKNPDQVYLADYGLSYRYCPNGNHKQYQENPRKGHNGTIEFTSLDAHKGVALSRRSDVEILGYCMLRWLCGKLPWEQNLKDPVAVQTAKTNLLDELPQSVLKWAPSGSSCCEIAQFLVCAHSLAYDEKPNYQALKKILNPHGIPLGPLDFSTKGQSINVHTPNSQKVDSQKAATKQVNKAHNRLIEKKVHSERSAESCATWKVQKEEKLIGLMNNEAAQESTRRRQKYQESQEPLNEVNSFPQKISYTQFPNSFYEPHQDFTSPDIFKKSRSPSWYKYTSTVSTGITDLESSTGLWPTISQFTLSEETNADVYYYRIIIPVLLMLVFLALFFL

Sequence: FAKLAARLYRKALARQLGVAA [MMI-0300]
- % activity (DCAMKL2(h)): 81%
- % activity (VRK2(h)): 161%
- % activity (cKit(D816H)(h)): 126%
- % activity (MuSK(h)): 93%
- % activity (Pim-2(h)): 76%
- % activity (TSSK1(h)): 79%
- % activity (AMPKα1(h)): 71%

Sequence: HRRIKAWLKKIKALARQLGVAA (Mammal) [MMI-0500]
- % activity (DCAMKL2(h)): 56%
- % activity (VRK2(h)): 169%
- % activity (cKit(D816H)(h)): 194%
- % activity (MuSK(h)): 27%
- % activity (Pim-2(h)): 46%
- % activity (TSSK1(h)): 46%
- % activity (AMPKα1(h)): 35%

Sequence: KAFAKLAARLYRKALARQLGVAA [MMI-0400]
- % activity (DCAMKL2(h)): 70%
- % activity (VRK2(h)): 185%
- % activity (cKit(D816H)(h)): 143%
- % activity (MuSK(h)): 93%
- % activity (Pim-2(h)): 92%
- % activity (TSSK1(h)): 79%
- % activity (AMPKα1(h)): 87%

Sequence: YARAAARQARAKALARQLGVAA [MMI-0100]
- % activity (DCAMKL2(h)): 146%
- % activity (cKit(D816H)(h)): 79%
- % activity (MuSK(h)): 85%
- % activity (TSSK1(h)): 99%

Sequence: YARAAARQARAKALNRQLGVA (Mammal) [MMI-0200]
- % activity (DCAMKL2(h)): 131%
- % activity (Pim-2(h)): 74%
- % activity (TSSK1(h)): 98%
- % activity (AMPKα1(h)): 108%
